The source of these data is patent US20040241820A1.

In this assay the target is Savinase® (subtilisin 309) (UniProt P29600). Kind of assay: cell-based or functional assay.
Chain of UniProt P29600 (P29600 whole entry): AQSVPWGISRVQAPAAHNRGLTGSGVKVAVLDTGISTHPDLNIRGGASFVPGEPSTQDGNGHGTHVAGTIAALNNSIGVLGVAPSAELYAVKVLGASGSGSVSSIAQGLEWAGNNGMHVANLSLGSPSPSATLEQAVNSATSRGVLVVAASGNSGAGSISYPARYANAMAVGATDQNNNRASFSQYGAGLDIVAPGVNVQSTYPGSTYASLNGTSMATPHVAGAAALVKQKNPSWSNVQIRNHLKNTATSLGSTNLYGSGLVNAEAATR

As to “trypsin inhibitor type IV-0 (Ovo-inhibitor), Sigma T-1886 (from UniProt P10184 69-517)”, the RA (%) (Residual Activity in the Ovo-inhibition Assay; hydrolysis of Suc-Ala-Ala-Pro-Phe-pNA with versus without inhibitor) was less than 5%.
